The values that follow come from US20020028202A1 (Biogen, published 2002).

Assay in all cases: staining of transfected COS-7 cells, FACS
For experiment [1], the target named is T1, human gc chain mutant, PW replaced by Ala (interdomain residues), myc-tagged, on COS-7 cells (human, UniProt P31785 23-369).
T1 construct: whole, on cells; not shown: 9 amino acid myc tag at the 5' end of the construct
T1 sequence (looked up): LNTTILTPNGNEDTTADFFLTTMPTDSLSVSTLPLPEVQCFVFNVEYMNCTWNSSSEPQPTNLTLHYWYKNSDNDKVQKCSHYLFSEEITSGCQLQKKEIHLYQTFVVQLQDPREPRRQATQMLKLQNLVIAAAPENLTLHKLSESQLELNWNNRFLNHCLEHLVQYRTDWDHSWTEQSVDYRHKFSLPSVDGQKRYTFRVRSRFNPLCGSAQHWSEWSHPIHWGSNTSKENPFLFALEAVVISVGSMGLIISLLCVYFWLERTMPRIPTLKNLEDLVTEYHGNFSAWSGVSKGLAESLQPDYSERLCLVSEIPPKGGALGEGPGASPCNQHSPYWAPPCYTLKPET
As for the experimental part: (§1) COS-7 cells are transiently transfected with 20 ug of DNA encoding the gc chain mutant or wildtype cDNA and 180 ug of herring sperm carrier DNA. After 2-3 days, COS-7 cells are harvested and analyzed by immnunofluorescent staining with anti-gc chain mAbs. MAbs are used at 10 ug/ml in PBS-1% BSA-0.02% sodium azide and allowed 30 minutes to bind to 1×10⁶ COS-7 cells. Cells are then washed 2 times, and bound mAb is detected with PE-conjugated goat anti-mouse Fc specific antibodies. The % of positive cells staining with the anti-gc chain mAb over an irrelevant control Ig is determined for a given gc chain mutant and for wildtype gc chain. […] Data are adjusted for any differences in level of expression of a mutant vs. wildtype constructs by measuring the binding of a mAb specific for a 9 amino acid myc tag engineered at the 5′ end of each gc chain construct. […] Values reduced from 100% indicate amino acid mutations which affect mAb binding.
(§2) The value “100%” indicates no effect of mutation and lower percentages indicate greater losses in binding as a result of the sequence change.

Experiment [2] deals with T2, human gc chain mutant, VIP replaced by Ala (interdomain residues), myc-tagged, on COS-7 cells (human, UniProt P31785 23-369).
T2 construct: whole, on cells; not shown: 9 amino acid myc tag at the 5' end of the construct
T2 sequence (looked up): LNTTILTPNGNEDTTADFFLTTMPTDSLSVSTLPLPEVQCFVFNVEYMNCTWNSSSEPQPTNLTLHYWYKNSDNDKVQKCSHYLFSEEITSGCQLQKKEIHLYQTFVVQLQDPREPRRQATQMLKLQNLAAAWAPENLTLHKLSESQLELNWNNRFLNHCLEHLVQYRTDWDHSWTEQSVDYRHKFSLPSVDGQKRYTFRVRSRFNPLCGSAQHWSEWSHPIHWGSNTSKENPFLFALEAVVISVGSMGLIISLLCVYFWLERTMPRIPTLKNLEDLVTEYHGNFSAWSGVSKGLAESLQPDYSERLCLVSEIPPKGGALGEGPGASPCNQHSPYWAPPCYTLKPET
The protocol:
as §1, §2

Experiment [3] has as its target T3, human gc chain mutant, VEY replaced by Ala (Domain 1 Loop AB), myc-tagged, on COS-7 cells (human, UniProt P31785 23-369).
T3 construct: whole, on cells; not shown: 9 amino acid myc tag at the 5' end of the construct
T3 sequence (looked up): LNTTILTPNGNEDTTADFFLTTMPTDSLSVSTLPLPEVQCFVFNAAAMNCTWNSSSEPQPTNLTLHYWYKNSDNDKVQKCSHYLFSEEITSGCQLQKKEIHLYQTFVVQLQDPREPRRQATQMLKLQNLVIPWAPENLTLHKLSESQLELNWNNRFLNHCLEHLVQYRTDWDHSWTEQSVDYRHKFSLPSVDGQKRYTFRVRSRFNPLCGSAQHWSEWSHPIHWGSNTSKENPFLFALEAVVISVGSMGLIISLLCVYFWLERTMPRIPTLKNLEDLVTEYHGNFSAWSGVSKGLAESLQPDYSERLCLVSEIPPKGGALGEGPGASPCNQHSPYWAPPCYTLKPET
As for the experimental part: as §1, §2

Experiment [4] deals with T4, human gc chain mutant, PL replaced by Ala (Domain 2 Loop FQ), myc-tagged, on COS-7 cells (human, UniProt P31785 23-369).
T4 construct: whole, on cells; not shown: 9 amino acid myc tag at the 5' end of the construct
T4 sequence (looked up): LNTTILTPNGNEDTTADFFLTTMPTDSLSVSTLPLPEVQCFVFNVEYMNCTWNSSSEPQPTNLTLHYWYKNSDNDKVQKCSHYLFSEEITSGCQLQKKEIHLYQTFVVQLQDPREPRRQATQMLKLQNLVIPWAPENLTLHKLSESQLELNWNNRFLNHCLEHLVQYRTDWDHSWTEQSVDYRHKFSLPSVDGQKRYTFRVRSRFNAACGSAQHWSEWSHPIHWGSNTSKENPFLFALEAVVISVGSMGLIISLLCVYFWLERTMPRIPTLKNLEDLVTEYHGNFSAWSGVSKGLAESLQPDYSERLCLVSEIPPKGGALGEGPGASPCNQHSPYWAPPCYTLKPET
The protocol:
as §1, §2

For experiment [5], the target named is T5, human gc chain mutant, NLV replaced by Ala (interdomain residues), myc-tagged, on COS-7 cells (human, UniProt P31785 23-369).
T5 construct: whole, on cells; not shown: 9 amino acid myc tag at the 5' end of the construct
T5 sequence (looked up): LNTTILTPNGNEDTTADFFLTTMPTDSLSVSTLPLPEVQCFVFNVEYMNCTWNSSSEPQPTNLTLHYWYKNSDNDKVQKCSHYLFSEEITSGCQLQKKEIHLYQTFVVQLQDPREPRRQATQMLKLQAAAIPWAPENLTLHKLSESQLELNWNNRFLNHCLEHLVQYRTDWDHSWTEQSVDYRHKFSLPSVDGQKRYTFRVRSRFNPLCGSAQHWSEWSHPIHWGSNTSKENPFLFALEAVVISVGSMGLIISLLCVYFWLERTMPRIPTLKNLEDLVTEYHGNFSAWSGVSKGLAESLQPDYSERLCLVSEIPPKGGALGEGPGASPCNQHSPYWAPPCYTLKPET
As for the experimental part: as §1, §2

For experiment [6], the target named is T6, human gc chain mutant, LSE replaced by Ala (Domain 2 Loop AB), myc-tagged, on COS-7 cells (human, UniProt P31785 23-369).
T6 construct: whole, on cells; not shown: 9 amino acid myc tag at the 5' end of the construct
T6 sequence (looked up): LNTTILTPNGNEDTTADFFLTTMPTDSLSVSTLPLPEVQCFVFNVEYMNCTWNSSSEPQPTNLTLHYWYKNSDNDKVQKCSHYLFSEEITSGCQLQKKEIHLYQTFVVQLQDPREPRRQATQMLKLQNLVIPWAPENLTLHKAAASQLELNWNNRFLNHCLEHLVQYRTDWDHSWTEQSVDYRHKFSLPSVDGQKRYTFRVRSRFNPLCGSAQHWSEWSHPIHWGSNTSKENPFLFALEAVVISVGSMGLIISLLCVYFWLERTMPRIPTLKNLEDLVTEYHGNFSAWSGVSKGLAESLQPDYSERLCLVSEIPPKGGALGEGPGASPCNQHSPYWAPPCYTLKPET
The protocol:
as §1, §2

B1: CP.B8 monoclonal antibody (murine anti-human gc chain, hybridoma ATCC HB-12107) (antibody, V domains shown)
VH: LQESGPGLVAPSQSLSITCTVSGFSLTSYGVHWVRQPPGKGLEWLGVIWAGGSTNYNSALMSRLNINRDNSKSQIFLKMNSLQTDDTAIYYCAREGSTVDSMDYWGQGTTVT
VL: DIVMTQSHKFMSTSVGDSITITCKASQDVTTAVAWYQQKPGQSPKLLIYWASTRHTGVPDRFTGSGSGTDYTLTISSVQAEDLALYYCQQHYITPWTFGGGTKLEI
notes: Used unconjugated and biotin-conjugated; also called CP.B8 mAb; mAb CP.B8
In the case of B1, the “% binding to mutant gc chain/wildtype gc chain” value was determined as 73% in experiment [1]; 21% in experiment [2]; 0% in experiment [3]; 86% in experiment [4]; 0% in experiment [5]; 90% in experiment [6].
